# The supplement of paper PMC10065799, “High-throughput profiling of sequence recognition by tyrosine kinases and SH2 domains using bacterial peptide display” (eLife, 2023)
# Experiments:
# AncSZ = assay: phosphorylation enrichment, bacterial display (enrichment ratio); higher = better substrate or ligand; peptides without Tyr show the background
# EPHB1 = EPHB1 (UniProt P54762); assay: as above
# EPHB2 = EPHB2 (UniProt P29323); assay: as above
# FGFR1 = FGFR1 (UniProt P11362); assay: as above
# FGFR3 = FGFR3 (UniProt P22607); assay: as above
# Fer (mouse) = assay: as above
# Fes = Fes (UniProt P07332); assay: as above
# Fyn = Fyn (UniProt P06241); assay: as above
# Hck = Hck (UniProt P08631); assay: as above
# Jak2 = Jak2 (UniProt O60674); assay: as above
# MERTK = MERTK (UniProt Q12866); assay: as above
# c-Abl (mouse) = assay: as above
# c-Src = assay: as above
# Grb2 SH2 = Grb2 SH2 (UniProt P62993); assay: SH2 binding enrichment of the phosphorylated peptide, bacterial display (enrichment ratio); higher = better substrate or ligand; peptides without Tyr show the background
# SHP2-C SH2 = assay: as above
# c-Src SH2 = assay: as above
# 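For SH2 binding enrichment of the phosphorylated peptide, bacterial display in this document: peptide library displayed on the E. coli surface as eCPX fusions, selected cells deep-sequenced, score is each peptide's frequency after selection divided by its frequency in the input.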
# 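For phosphorylation enrichment, bacterial display in this document: 11-residue human phosphosite peptides and single-mutation variants displayed on the E. coli surface, counted by deep sequencing, each peptide's frequency after selection divided by its frequency in the unselected input library; frequency after pTyr selection over input frequency; kinase dosed for 20-30% of maximal phosphorylation in three min.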
# Sequence of Fes (P07332 whole entry, looked up): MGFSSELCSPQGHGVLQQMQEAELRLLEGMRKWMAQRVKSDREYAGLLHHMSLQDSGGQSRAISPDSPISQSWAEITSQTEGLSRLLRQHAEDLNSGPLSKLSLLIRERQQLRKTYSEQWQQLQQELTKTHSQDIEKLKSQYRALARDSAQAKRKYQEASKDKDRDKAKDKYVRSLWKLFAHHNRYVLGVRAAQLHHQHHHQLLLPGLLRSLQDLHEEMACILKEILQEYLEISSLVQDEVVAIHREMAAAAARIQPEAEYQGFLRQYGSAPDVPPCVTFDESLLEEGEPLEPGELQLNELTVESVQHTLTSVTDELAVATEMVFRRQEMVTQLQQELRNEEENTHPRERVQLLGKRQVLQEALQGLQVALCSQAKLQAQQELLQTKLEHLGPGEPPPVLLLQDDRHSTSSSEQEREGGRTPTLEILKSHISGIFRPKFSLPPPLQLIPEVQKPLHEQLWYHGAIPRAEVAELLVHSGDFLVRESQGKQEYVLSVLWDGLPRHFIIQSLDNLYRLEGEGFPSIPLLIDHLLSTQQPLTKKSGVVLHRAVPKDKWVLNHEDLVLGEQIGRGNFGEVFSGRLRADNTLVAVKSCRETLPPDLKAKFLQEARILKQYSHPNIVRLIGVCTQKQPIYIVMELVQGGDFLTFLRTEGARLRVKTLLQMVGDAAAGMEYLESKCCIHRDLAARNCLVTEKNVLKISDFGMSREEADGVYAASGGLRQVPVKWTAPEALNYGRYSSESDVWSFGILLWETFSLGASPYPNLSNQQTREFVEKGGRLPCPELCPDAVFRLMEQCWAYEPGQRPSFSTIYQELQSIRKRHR
# Sequence of Jak2 (O60674 whole entry, looked up): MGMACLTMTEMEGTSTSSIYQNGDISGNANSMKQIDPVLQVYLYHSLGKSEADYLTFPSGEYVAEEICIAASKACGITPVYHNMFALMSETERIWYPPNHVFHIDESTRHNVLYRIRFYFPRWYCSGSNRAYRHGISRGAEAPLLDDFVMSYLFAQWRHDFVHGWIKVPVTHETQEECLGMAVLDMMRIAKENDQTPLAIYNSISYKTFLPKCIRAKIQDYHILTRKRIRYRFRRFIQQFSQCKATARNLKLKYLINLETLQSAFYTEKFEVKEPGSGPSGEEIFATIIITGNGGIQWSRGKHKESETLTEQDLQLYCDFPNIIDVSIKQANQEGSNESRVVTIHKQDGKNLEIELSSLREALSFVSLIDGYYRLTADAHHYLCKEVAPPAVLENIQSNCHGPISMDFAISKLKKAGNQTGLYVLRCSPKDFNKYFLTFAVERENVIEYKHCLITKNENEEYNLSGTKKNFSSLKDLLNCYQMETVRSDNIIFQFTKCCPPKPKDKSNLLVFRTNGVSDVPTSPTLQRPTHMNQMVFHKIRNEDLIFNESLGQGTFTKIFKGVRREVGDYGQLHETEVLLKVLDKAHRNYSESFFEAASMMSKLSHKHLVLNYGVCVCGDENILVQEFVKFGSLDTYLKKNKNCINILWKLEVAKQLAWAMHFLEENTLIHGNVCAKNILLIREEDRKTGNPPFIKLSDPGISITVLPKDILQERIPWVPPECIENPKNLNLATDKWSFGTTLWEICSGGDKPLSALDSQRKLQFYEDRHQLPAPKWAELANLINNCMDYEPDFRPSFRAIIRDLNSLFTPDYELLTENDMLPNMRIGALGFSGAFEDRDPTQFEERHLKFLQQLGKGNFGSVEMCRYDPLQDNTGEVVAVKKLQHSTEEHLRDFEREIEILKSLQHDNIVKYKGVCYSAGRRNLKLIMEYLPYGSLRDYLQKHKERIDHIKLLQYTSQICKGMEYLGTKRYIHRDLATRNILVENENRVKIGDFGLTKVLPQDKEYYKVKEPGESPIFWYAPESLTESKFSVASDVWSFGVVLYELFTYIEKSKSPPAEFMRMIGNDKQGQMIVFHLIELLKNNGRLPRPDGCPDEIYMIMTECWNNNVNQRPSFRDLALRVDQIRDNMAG
# Sequence of Fyn (P06241 whole entry, looked up): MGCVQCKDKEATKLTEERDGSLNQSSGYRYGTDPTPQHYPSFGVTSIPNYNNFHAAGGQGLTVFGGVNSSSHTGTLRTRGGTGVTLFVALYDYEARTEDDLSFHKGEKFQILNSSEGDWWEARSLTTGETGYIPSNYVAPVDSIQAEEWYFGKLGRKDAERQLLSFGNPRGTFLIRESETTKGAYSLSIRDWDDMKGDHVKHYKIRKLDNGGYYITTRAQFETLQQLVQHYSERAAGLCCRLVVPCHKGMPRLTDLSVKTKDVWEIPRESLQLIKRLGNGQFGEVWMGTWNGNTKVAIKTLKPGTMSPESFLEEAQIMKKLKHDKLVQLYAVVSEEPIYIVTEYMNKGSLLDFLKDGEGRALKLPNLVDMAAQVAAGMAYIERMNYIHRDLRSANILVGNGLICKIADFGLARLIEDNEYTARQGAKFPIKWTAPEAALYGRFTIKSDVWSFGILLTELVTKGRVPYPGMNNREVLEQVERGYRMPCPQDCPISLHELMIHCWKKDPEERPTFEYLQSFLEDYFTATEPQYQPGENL
# Sequence of FGFR1 (P11362 whole entry, looked up): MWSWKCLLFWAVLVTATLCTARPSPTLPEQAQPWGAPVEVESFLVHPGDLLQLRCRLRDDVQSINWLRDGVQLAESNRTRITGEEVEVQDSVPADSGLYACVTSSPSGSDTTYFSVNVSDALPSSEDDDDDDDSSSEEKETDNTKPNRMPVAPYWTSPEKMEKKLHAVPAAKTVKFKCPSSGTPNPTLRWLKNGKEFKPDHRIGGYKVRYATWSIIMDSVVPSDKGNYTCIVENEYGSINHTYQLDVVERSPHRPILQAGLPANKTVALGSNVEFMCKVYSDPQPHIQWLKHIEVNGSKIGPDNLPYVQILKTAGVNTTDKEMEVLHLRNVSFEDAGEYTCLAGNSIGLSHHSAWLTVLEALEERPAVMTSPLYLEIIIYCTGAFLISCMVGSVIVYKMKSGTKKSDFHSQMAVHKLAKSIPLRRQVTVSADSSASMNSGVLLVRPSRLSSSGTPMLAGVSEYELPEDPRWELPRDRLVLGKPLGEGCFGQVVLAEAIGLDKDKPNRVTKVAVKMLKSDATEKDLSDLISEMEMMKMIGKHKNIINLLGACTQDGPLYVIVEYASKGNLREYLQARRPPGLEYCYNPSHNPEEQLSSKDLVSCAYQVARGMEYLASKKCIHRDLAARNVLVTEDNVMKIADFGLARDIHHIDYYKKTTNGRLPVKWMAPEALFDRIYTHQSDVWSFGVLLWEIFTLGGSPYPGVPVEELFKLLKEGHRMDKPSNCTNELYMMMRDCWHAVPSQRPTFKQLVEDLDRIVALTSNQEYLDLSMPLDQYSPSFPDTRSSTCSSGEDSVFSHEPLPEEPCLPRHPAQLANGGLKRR
# Sequence of EPHB2 (P29323 whole entry, looked up): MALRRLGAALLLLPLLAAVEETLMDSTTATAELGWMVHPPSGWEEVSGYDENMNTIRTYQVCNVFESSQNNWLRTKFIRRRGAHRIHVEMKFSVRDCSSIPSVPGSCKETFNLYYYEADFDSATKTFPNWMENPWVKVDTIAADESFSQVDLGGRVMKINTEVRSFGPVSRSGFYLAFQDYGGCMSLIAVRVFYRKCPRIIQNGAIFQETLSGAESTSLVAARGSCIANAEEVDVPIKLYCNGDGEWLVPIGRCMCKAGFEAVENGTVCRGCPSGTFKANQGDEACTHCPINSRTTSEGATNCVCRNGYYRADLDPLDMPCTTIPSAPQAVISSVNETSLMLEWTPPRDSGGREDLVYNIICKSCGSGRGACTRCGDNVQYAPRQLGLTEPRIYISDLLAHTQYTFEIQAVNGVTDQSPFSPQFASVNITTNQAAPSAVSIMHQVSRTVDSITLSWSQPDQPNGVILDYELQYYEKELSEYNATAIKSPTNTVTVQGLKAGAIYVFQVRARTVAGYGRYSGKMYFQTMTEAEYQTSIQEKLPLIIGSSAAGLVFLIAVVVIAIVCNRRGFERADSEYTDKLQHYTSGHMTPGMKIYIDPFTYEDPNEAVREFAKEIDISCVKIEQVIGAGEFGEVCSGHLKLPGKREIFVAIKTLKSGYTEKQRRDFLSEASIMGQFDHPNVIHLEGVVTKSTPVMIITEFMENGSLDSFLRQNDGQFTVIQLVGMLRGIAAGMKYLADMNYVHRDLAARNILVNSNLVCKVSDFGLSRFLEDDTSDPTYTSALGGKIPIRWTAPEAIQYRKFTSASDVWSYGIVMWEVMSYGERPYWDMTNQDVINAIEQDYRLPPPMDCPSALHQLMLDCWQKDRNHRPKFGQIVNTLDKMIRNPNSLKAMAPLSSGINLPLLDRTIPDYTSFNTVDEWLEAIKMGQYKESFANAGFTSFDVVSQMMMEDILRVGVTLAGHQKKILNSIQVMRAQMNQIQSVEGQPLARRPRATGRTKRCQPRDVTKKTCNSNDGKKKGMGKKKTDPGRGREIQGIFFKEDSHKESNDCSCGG
# Sequence of Hck (P08631 whole entry, looked up): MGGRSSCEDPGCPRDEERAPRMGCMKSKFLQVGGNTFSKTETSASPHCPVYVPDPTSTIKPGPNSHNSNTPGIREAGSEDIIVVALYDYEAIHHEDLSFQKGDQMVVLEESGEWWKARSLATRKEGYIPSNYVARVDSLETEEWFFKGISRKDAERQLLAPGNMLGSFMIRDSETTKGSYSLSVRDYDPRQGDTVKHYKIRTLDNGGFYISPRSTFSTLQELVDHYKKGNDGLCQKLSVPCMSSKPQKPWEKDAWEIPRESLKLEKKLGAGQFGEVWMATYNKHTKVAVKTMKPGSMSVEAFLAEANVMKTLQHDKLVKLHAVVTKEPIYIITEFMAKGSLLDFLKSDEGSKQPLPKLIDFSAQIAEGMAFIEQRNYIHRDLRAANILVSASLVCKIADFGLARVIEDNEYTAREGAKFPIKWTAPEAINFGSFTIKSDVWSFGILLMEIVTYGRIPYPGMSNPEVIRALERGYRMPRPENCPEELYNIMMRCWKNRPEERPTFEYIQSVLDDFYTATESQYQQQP
Sequence,SH2 binding enrichment (Grb2 SH2),SH2 binding enrichment (SHP2-C SH2),SH2 binding enrichment (c-Src SH2),phosphorylation enrichment (AncSZ),phosphorylation enrichment (EPHB1),phosphorylation enrichment (EPHB2),phosphorylation enrichment (FGFR1),phosphorylation enrichment (FGFR3),phosphorylation enrichment (Fer (mouse)),phosphorylation enrichment (Fes),phosphorylation enrichment (Fyn),phosphorylation enrichment (Hck),phosphorylation enrichment (Jak2),phosphorylation enrichment (MERTK),phosphorylation enrichment (c-Abl (mouse)),phosphorylation enrichment (c-Src)
KNNDGYIDFAE [MCFD2_Y135_YF],0.707,0.999,14.3,0.921,0.492,0.483,0.556,0.725,0.559,1.06,0.406,0.513,0.903,0.377,0.663,0.395
KPFRVYCDMNT [FGB_Y269_YF],0.783,0.535,0.771,1.22,0.933,0.72,0.597,0.773,0.593,1.3,0.493,0.513,1.31,0.409,0.886,0.414
KRAAIYNPVIF [RHO_Y301_S297R_YF],1.01,1.19,0.854,0.725,0.432,0.55,0.492,0.541,10.4,0.841,1.91,4.07,0.738,2.69,0.741,2.22
KSIEEYLKLVG [RASAL2_Y381],0.673,1.03,0.441,0.772,0.468,0.581,0.528,0.48,0.409,0.962,0.404,0.51,0.775,0.372,0.521,0.438
KSPDSYQKILF [ATM_Y1415_L1420F],1.26,1.75,1.96,0.567,0.468,0.464,0.509,0.427,0.338,0.517,0.484,0.406,0.6,0.585,0.511,0.632
KTNVSYCGALD [CACNB4_Y103],0.9,0.726,0.551,0.778,0.564,0.508,0.494,0.643,0.46,0.834,0.381,0.503,0.754,0.389,0.745,0.469

# Second part, led by results:
SH2 binding enrichment (Grb2 SH2),SH2 binding enrichment (SHP2-C SH2),SH2 binding enrichment (c-Src SH2),Sequence,phosphorylation enrichment (AncSZ),phosphorylation enrichment (EPHB1),phosphorylation enrichment (EPHB2),phosphorylation enrichment (FGFR1),phosphorylation enrichment (FGFR3),phosphorylation enrichment (Fer (mouse)),phosphorylation enrichment (Fes),phosphorylation enrichment (Fyn),phosphorylation enrichment (Hck),phosphorylation enrichment (Jak2),phosphorylation enrichment (MERTK),phosphorylation enrichment (c-Abl (mouse)),phosphorylation enrichment (c-Src)
0.642,0.636,0.342,KLMTEYKRRKQ [ARFGEF3_Y2029_K2031R],0.661,0.477,0.496,0.677,0.646,0.573,0.572,0.544,0.521,0.458,0.536,0.503,0.526
0.868,0.715,1.22,KLYRVYCDMNT [FGB_Y269_P265L],0.978,0.769,0.702,0.452,0.693,0.52,1.07,0.608,0.623,0.838,0.466,0.696,0.549
1.13,0.909,1.12,KMTGRYEMYAR [UPB1_Y362],0.828,0.58,0.627,0.523,0.487,0.438,0.789,0.476,0.549,0.674,0.428,0.54,0.416
0.897,1.04,0.565,KQLGEYKFQNA [ALB_Y425_E420K],0.507,0.348,0.386,0.468,0.417,0.306,0.565,0.395,0.375,0.525,0.399,0.4,0.358
0.791,0.493,1.34,KRYRIYHLATS [BRCA2_Y3009],0.564,0.456,0.461,0.487,0.509,0.313,0.491,0.445,0.432,0.336,0.322,0.402,0.508
1,0.606,0.438,KTVQDYLKKFY [MMP8_Y36_E38K],0.571,0.396,0.398,0.428,0.382,0.325,0.687,0.366,0.438,0.517,0.454,1.42,0.421
1,0.769,0.588,KVGPGYLGSRG [RET_Y826_G830R],0.402,0.302,0.345,0.318,0.339,0.328,0.55,0.329,0.327,0.439,0.457,0.444,0.366
0.934,0.697,0.651,KVMANYMFKAG [MAML2_Y513_YF],0.638,0.448,0.744,0.412,0.418,0.394,0.675,0.344,0.342,0.519,0.432,0.556,0.414
